# Source: US20120003296A1, “NEW METHODS OF TREATING DRY EYE SYNDROME” (priority 2010, published 2012)
# Legend:
# [1] = system: dry mouth and dry eyes conditions; test: ADT (Sialor) orally and/or as eye drops in dry mouth and dry eyes; type: in vivo; conditions: 25 mg orally and/or ophthalmic drops; chemotherapy patients, menopausal women, chronic smokers
# Method: Another drug available is an organo sulfur compound, anethole dithiolethione (ADT, 5-[p-methoxyphenyl]-3H-1,2-dithiol-3-thione, trade name Sialor™) with hardly any side effects. It stimulates the secretion of saliva in patients with autoimmune exocrinopathy (e.g. Sjogren's syndrome). Sialor alleviates the symptoms of xerostomia and xeroophthalmia. We have used Sialor, 25 mg orally and/or ophthalmic drops with successes in these conditions especially those on chemotherapy, menopausal women, and chronic smokers with dry mouth and dry eyes conditions. ADT increases the glutathione synthesis by activating gamma-glutamyl-cysteine synthetase. ADT reduced both polymorphonuclear neutrophils adhesion to ROS (reactive oxygen species—can be effective in post perfusion adhesion of white blood cells to ROS with resultant damage) and stimulated tyrosine phosphorylation.
# Another drug available to treat KCS is a organo sulfur compound, anethole dithiolethione (ADT—trade name Sialor) with hardly any side effects. It stimulates the secretion of saliva, in patients with autoimmune exocrinopathy (Sjogren's syndrome). Sialor alleviates the symptoms of xerostomia and xeroophthalmia. […]
# Wurzburg cells = conditions: cited from earlier work
# [2] = relative to testosterone; cited from earlier work
# dry eye [3] = conditions: ophthalmic drops, compared to artificial tears or testosterone; cited from earlier work
# dry eye syndrome [4] = test: MSM mixed with insulin as eye drops; type: in vivo; conditions: aqueous MSM mixed with insulin, chemotherapy, allergic eyes, contact lens wearers
# Description: Methylsulfonylmethane (MSM), is an organosulfur compound with the formula (CH3)2SO2, a metabolite of DMSO. It is also known by several other names: DMSO2, MSM, Methylsulfonylmethane, methyl sulfone, and dimethyl sulfone. It is marketed as dietary supplement and also used for osteoarthritis, allergic rhinitis, interstitial cystitis, and throat spray for snoring. Stanley W. Jacob, M.D., of the Oregon Health and Science University, reports using MSM to treat over 18,000 patients with a assortment of ailments (MSM the Definitive Guide: The Nutritional Breakthrough for Arthritis, Allergies and More. Freedom Press. 2003. ISBN 9781893910225. http://www.amazon.com/MSM-Definitive-Guide-Nutritional-Breakthrough/dp/1893910229). It is soluble in water, and a good solvent like DMSO. We have used aqueous solutions of MSM, filtered and sterilized and mixed with insulin and used as eye drops to treat dry eye syndrome during chemotherapy, allergic conditions of the eyes and contact lens wearers with good results.
# dry eye [5] = conditions: 2% suspension, versus baseline; cited from earlier work
# [6] = system: scleroderma and systemic lupus erythematosus; conditions: with insulin
# dry eye syndrome [7] = test: Therapeutic activity against dry eye syndrome; type: in vivo; conditions: incl. KCS, Sjogren's syndrome, MGD
# Description: Also, the terminology used herein is for the purpose of description and not of limitation.
# [8] = in vivo; cited from earlier work
# indolent ulcers = test: Local insulin on ulcers and tooth extraction wounds; type: in vivo; conditions: insulin spray, anywhere in the body incl. oral and nasal cavity
# Description: (§1) The present inventors have used insulin for more than a decade to enhance the effectiveness of locally injected therapeutic agents especially cancers with chemotherapeutic agents with remarkable results. […] It stimulated the fibroblast, endothelial cell, angiogenesis and skin cell growth resulting accelerated wound healing.
# [9] = as above; type: in vivo; conditions: insulin soaked cotton swabs, 1-3 units in normal saline
# Description: as §1
# musculoskeletal pain = test: Prolotherapy injectate with insulin; type: in vivo; conditions: with insulin versus prolotherapy agent alone
# Description: The inventors have used glucose along with insulin and lidocaine in our prolotherapy injectate for various musculoskeletal pain, including arthritis, back pain, neck pain, fibromyalgia, sports injuries, unresolved whiplash injuries, carpal tunnel syndrome, chronic tendonitis, partially torn tendons, ligaments and cartilage, degenerated or herniated discs, TMJ pain and sciatica. It is important to note the principle of prolotherapy is to induce fibroblasts to multiply and lay more ligaments (collagen); make the ligaments and tendons stronger inducing sterile inflammation at the site. Insulin can enhance the multiplication of fibroblasts by these prolotherapy and other sterile inflammatory therapeutic agents to make ligaments stronger. […] Insulin increased the fibroblast mitosis and thus increased production of collage to strengthen the ligaments of the painful joint giving long lasting fast pain relief with stronger functional joints. When insulin is therapeutically effective ever in taking away the pain by various prolotherapy therapeutic agents, one can see how effective it is in treating the dry eye syndrome and associated diseases of the eye.
# [10] = system: advanced and localized cancers; test: Insulin followed by chemotherapeutic agents injected into cancer masses; type: in vivo; conditions: insulin followed by anticancer chemotherapeutic agents, direct injection
# Description: Our study of injecting Insulin followed by anticancer chemotherapeutic agents directly into cancer masses on hundreds of advanced and localized cancers supports these finding also. […] We treated multiple brain cancer patients by directly injecting insulin with mannitol followed by with specific anti tumor Chemo-therapeutic agents with dextrose and heparin directly infused into the internal carotid artery with positive results. Patients lived longer with good quality of life with less side effects to the chemotherapy agents.
# [11] = system: MCF-7 human breast cancer cells; conditions: in vitro, MCF-7 cells, methotrexate in presence of insulin; cited from earlier work
# pain = test: Trigger point and joint injection of local anesthetic with insulin; type: in vivo; conditions: local anesthetic with insulin versus injectate without insulin
# Description: Trigger points or trigger sites are described as hyperirritable spots in skeletal muscle that are associated with palpable nodules in taut bands of muscle fibers whose compression may elicit local tenderness, referred pain, or local twitch response. There are many therapies to take away the tenderness and sore spots.
# [12] = local application incl. conjunctival sac, scalp, gums, mucosa, wounds
# Description: The present invention formulation contains only 0.05 IU per drop which can be increased in severe disease states.
molecule,measurement,setting,value
"COc1ccc(-c2cc(=S)ss2)cc1 [ADT, 5-[p-methoxyphenyl]-3H-1,2-dithiol-3-thione]",treatment outcome in dry mouth and dry eyes conditions,[1],successes
same,H2O2 induced lipid peroxidation,Wurzburg cells; ADT pretreatment of Wurzburg cells,remarkably inhibited
same,glutathione levels,Wurzburg cells; compared with untreated Wurzburg cells,rises glutathione levels significantly
"C[C@]12CC[C@H](O)CC1=CC[C@@H]1[C@@H]2CC[C@]2(C)C(=O)CC[C@@H]12 [DHEA, dehydroepiandrosterone]",androgenic activity of testosterone,[2],5%
same,subjective patient response,dry eye [3],felt better
"CS(C)(=O)=O [MSM, Methylsulfonylmethane]",treatment outcome in dry eye syndrome,dry eye syndrome [4],good results
O=C(NC(Cc1cc(=O)[nH]c2ccccc12)C(=O)O)c1ccc(Cl)cc1 (stereo not drawn) [Rebamipide],fluorescein corneal staining,dry eye [5],decreased from baseline
same,subjective parameters such as gritty/sandy sensation and burning/pain,dry eye [5],decreased from baseline
"O=P1(N(CCCl)CCCl)NCCCO1 (stereo not drawn) [cyclophosphamide, Cyclophosphamide]",treatment outcome in scleroderma and systemic lupus erythematosus,[6],very successfully
"IGF-1: Insulin-like Growth factor (IGF-1), which has insulin like effects",therapeutic activity against dry eye syndrome,dry eye syndrome [7],high therapeutic activity
Insulin aspart,Onset of Action in hours,[8],¼-½
Insulin detemir,Effective duration of action,[8],14 h
same,Maximum duration,[8],~20 h
same,Onset of Action,[8],3 to 4 h
same,Peak action in hours,[8],6 to 8 h
Insulin glargine,Effective duration of action,[8],18 to 20 h
same,Maximum duration,[8],20 to 24 h
same,Onset of Action,[8],3 to 4 h
same,Peak action in hours,[8],8 to 16 h
Insulin glulisine,Onset of Action in hours,[8],¼-½
Insulin lispro,Onset of Action in hours,[8],¼-½
NPH (isophane): intermediate-acting insulin,Effective duration of action,[8],10 to 16 h
same,Maximum duration,[8],14 to 18 h
same,Onset of Action,[8],2 to 4 h
same,Peak action in hours,[8],6 to 10 h
Regular (soluble): short-acting insulin,Effective duration of action,[8],3 to 6 h
same,Maximum duration,[8],6 to 8 h
same,Peak action in hours,[8],2 to 3 h
insulin,healing of indolent ulcers,indolent ulcers,augmented the healing
same,healing after teeth extraction,[9],rapid healing with reduced pain
same,effectiveness of prolotherapy,musculoskeletal pain,more effective
same,palpable tumors including enlarged lymph nodes,[10],literally melted away
same,increase of the cytotoxic effect of methotrexate,[11],"up to 10,000 fold"
same,relief of pain,pain,rapid and effective relief of pain
same,therapeutic activity against dry eye syndrome,dry eye syndrome [7],high therapeutic activity
same,blood sugar levels (hypoglycemic effects),[12],did not change the blood sugar levels
